Results taken from the Human Domainome abundance scans (Beltran et al. 2025).
± gives the uncertainty stated by the source.

B1: Pre-mRNA-processing factor 40 homolog B, residues 274 to 332; numbered along this chain, Q6NWY9 (parent)
chain: SNREKAKQAFKELLRDKAVPSNASWEQAMKMVVTDPRYSALPKLSEKKQAFNAYKAQRE
B2: Lysine-specific demethylase 5C, residues 319 to 373; numbered along this chain, P41229 (parent)
chain: AQFIESYVCRMCSRGDEDDKLLLCDGCDDNYHIFCLLPPLPEIPKGVWRCPKCVM

Variants of: B1
Test: abundance fitness (aPCA) (normalised: wild type 0, dead -1); higher = more abundant; growth selection in yeast, the domain comes from the species named
Settings: Homo sapiens

Variant | abundance fitness
K55F | -0.652 ± 0.17
K55N | -0.337 ± 0.12
K55M | -0.356 ± 0.1
K55S | -0.25 ± 0.075
K55Q | -0.239 ± 0.12
K55D | -0.29 ± 0.11
K55H | -0.258 ± 0.19
K55A | -0.304 ± 0.063
K55T | -0.242 ± 0.091
K55C | 0.12 ± 0.11
K55R | -0.18 ± 0.057
K55V | -0.139 ± 0.061
K55W | -0.947 ± 0.11
K55P | -0.359 ± 0.093
K55Y | -0.644 ± 0.18
K55I | -0.11 ± 0.095
K55E | -0.333 ± 0.08
A50W | -0.627 ± 0.089
A50N | -0.629 ± 0.13
A50M | -0.076 ± 0.097
A50S | -0.382 ± 0.074
A50F | -0.485 ± 0.19
A50Q | -0.212 ± 0.084
A50T | -0.43 ± 0.1
A50Y | -0.895 ± 0.23

Variant | abundance fitness
A50G | -0.462 ± 0.066
A50L | -0.084 ± 0.075
A50H | -0.606 ± 0.28
A50R | -0.818 ± 0.072
A50P | -0.351 ± 0.12
A50E | -0.224 ± 0.14
A50D | -0.299 ± 0.13
A50C | -0.008 ± 0.1
A50I | -0.194 ± 0.15
A50K | -0.765 ± 0.12
Q49S | -0.162 ± 0.098
Q49Y | -0.544 ± 0.24
Q49T | -0.364 ± 0.15
Q49W | -0.643 ± 0.1
Q49V | -0.205 ± 0.087
R58V | 0.085 ± 0.1
R58G | 0.093 ± 0.071
R58Y | 0.1 ± 0.28
R58P | -0.018 ± 0.11
R58A | 0.188 ± 0.088
R58W | 0.061 ± 0.087
R58M | 0.184 ± 0.13
R58C | 0.26 ± 0.13
R58K | 0.008 ± 0.23
R58S | -0.008 ± 0.093

Variant | abundance fitness
R58T | -0.108 ± 0.14
R58H | -0.013 ± 0.27
R58Q | 0.16 ± 0.12
R58I | -0.648 ± 0.29
R58D | -0.244 ± 0.21
R58L | 0.212 ± 0.1
R58F | -0.162 ± 0.22
N52E | 0.253 ± 0.073
N52M | 0.039 ± 0.18
N52F | -0.901 ± 0.49
N52D | -0.038 ± 0.12
N52R | -0.053 ± 0.066
N52V | -0.11 ± 0.083
N52Q | 0.062 ± 0.15
N52A | -0.09 ± 0.079
N52T | -0.231 ± 0.1
N52Y | -0.21 ± 0.14
N52P | -0.367 ± 0.096
N52G | -0.282 ± 0.065
N52W | -0.431 ± 0.085
N52H | -0.053 ± 0.18
N52S | -0.072 ± 0.075
N52L | -0.04 ± 0.092
N52K | 0.031 ± 0.12
N52C | -0.129 ± 0.15

Variant | abundance fitness
E59V | 0.042 ± 0.1
E59Q | -0.033 ± 0.13
E59T | -0.109 ± 0.13
E59H | -0.204 ± 0.22
E59W | -0.54 ± 0.13
E59K | 0.055 ± 0.25
E59C | -0.216 ± 0.29
E59G | -0.212 ± 0.074
E59L | -0.424 ± 0.14
E59A | 0.184 ± 0.14
E59M | 0.167 ± 0.41
E59D | -0.203 ± 0.16
E59S | -0.397 ± 0.13
E59R | -0.189 ± 0.074
E59F | -0.53 ± 0.23
A53G | -0.293 ± 0.052
A53Y | -0.524 ± 0.19
A53S | -0.089 ± 0.079
A53D | 0.042 ± 0.1
A53R | -0.452 ± 0.065
A53H | -0.476 ± 0.26
A53K | -0.174 ± 0.1
A53N | -0.079 ± 0.16
A53V | -0.274 ± 0.071
A53M | -0.394 ± 0.1

Variant | abundance fitness
A53E | 0.317 ± 0.08
A53L | -0.314 ± 0.074
A53P | -0.494 ± 0.11
A53F | -0.835 ± 0.18
A53I | -0.372 ± 0.15
Y54L | -0.085 ± 0.4
Y54E | -0.363 ± 0.36
Q57F | -0.514 ± 0.12
Q57A | 0.046 ± 0.056
Q57V | -0.257 ± 0.057
Q57Y | -0.715 ± 0.11
Q57C | -0.156 ± 0.075
Q57R | -0.286 ± 0.05
Q57P | -0.249 ± 0.071
Q57I | -0.565 ± 0.1
Q57E | 0.248 ± 0.078
Q57H | -0.149 ± 0.11
Q57M | -0.322 ± 0.091
Q57W | -0.138 ± 0.066
Q57L | -0.527 ± 0.066
Q57N | -0.163 ± 0.092
Q57D | 0.158 ± 0.097
Q57S | 0.027 ± 0.059
Q57T | -0.165 ± 0.074
A56M | -0.127 ± 0.097

Variant | abundance fitness
A56S | -0.016 ± 0.069
A56V | -0.076 ± 0.069
A56F | -0.526 ± 0.16
A56R | -0.116 ± 0.057
A56N | -0.18 ± 0.13
A56W | -0.293 ± 0.079
A56T | -0.122 ± 0.099
A56I | -0.261 ± 0.12
A56H | -0.102 ± 0.13
A56G | -0.242 ± 0.053
A56Q | 0.027 ± 0.086
A56K | -0.015 ± 0.086
A56P | -0.454 ± 0.1
A56L | 0.034 ± 0.074
A56Y | -0.351 ± 0.13
A56C | -0.451 ± 0.12
F51W | -0.61 ± 0.33
F51S | -0.463 ± 0.41
F51G | -0.28 ± 0.35
F51K | -0.371 ± 0.22

Variants of: B2
Test: as above
Settings: Homo sapiens

Variant | abundance fitness
Q2F | -0.531 ± 0.26
Q2G | -0.446 ± 0.21
Q2P | -0.141 ± 0.18
Q2N | -0.019 ± 0.19
Q2H | -0.187 ± 0.15
Q2E | -0.258 ± 0.28
Q2A | -0.273 ± 0.43
Q2L | -0.119 ± 0.11
Q2K | 0.247 ± 0.33
Q2C | -0.446 ± 0.31
Q2I | 0.186 ± 0.37
Q2R | -0.271 ± 0.14
Q2M | -0.109 ± 0.24
A1D | -0.009 ± 0.44
A1M | 0.135 ± 0.47
A1I | 0.146 ± 0.47
A1L | -0.331 ± 0.4
A1T | -0.704 ± 0.3
A1S | -0.244 ± 0.19
A1W | -0.242 ± 0.34
A1V | -0.297 ± 0.15
A1E | -0.143 ± 0.26
